This is an account of results in patent publication US20250282881A1 (SHANGHAI EPIMAB BIOTHERAPEUTICS, published 2025).

Numbering of substitutions follows the chain as printed.

To fix the notation:
T1: recombinant human OX40/His fusion protein (Novoprotein, CB17) (human, UniProt P43489 29-216)
T1 construct: Bought protein
T1 sequence: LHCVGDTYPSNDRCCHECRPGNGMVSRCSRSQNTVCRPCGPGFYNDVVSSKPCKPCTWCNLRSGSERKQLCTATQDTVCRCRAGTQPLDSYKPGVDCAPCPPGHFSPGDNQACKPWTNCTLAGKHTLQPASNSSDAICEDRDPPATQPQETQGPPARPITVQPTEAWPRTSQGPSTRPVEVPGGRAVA

B1: EM1007-mAb044c-9 (antibody, human IgG1, kappa, L234A L235A, V domains shown)
VH: QVQLQQSGPELVKPGASVTISCKASGHAFSSSWMNWVKQRPGKGLEWIGRIYPGDEITNYNAKFKDKATLTADKSSSTAYMQLSSLTFEDSAVYFCARDLLMPYWGQGTLVTVSA
VL: DIVMTQTAFSNPVTLGTSASISCRSSKSLLYSNGITYLYWYLQKPGQSPHLLIYQMSNLAPGVPDRFSSSGSGTDFTLRISRVEAEDVGIYYCAQNLELPFTFGSGTKLEIKR
B2: EM1007-mAb044c-10 (antibody, human IgG1, kappa, L234A L235A, V domains shown)
VH: B1 VH with A62G
VL: B1 VL with G34A
B3: HuEM1007-044-8 (antibody, human IgG1, kappa, L234A L235A, V domains shown)
VH: EVQLVQSGAEVKKPGSSVKVSCKASGHTFSSSWMNWVKQAPGKGLEWIGRIYPGDEITNYNGKFKDKVTLTADKSTSTAYMELSSLRSEDTAVYYCARDLLMPYWGQGTLVTVSS
VL: B1 VL with A8P, F9L, N11L, L15P, T17E, S18P, H50Q, R79K, I90V, S105Q
notes: Humanized anti-OX40, human IgG1 LALA / kappa
B4: EM1007-mAb044c-11 (antibody, human IgG1, kappa, L234A L235A, V domains shown)
VH: B1 VH
VL: B1 VL with G34A
B5: HuEM1007-044-7 (antibody, human IgG1, kappa, L234A L235A, V domains shown)
VH: B3 VH with K38R, K43Q, K67R
VL: B1 VL with A8P, F9L, N11L, L15P, T17E, S18P, H50Q, R79K, I90V, S105Q
notes: as for B3
B6: EM1007-mAb044c-12 (antibody, human IgG1, kappa, L234A L235A, V domains shown)
VH: B1 VH with A62G
VL: DIVMTQTPLSLPVTPGEPASISCRSSKSLLYSNGITYLYWYLQKPGQSPQLLIYQMSNLAPGVPDRFSGSGSGTDFTLKISRVEAEDVGVYYCAQNLELPFTFGQGTKLEIKR
B7: HuEM1007-044-6 (antibody, human IgG1, kappa, L234A L235A, V domains shown)
VH: B3 VH with K38R, K43Q, I48M, K67R, L70I
VL: B6 VL with G69S
notes: as for B3
B8: HuEM1007-044-2 (antibody, human IgG1, kappa, L234A L235A, V domains shown)
VH: B3 VH with K38R, K43Q, I48M, K67R, L70I
VL: B6 VL
notes: as for B3
B9: HuEM1007-044-5 (antibody, human IgG1, kappa, L234A L235A, V domains shown)
VH: B3 VH with H27G, K38R, K43Q, I48M, K67R, L70I
VL: B6 VL with G69S
notes: as for B3
B10: HuEM1007-044-1 (antibody, human IgG1, kappa, L234A L235A, V domains shown)
VH: B3 VH with H27G, K38R, K43Q, I48M, K67R, L70I
VL: B6 VL
notes: as for B3
B11: HuEM1007-044-3 (antibody, human IgG1, kappa, L234A L235A, V domains shown)
VH: B3 VH with K38R, K43Q, K67R
VL: B6 VL
notes: as for B3
B12: EM1007-mAb044c-15 (antibody, human IgG1, kappa, L234A L235A, V domains shown)
VH: B3 VH with H27G, K38R, A40R, I48M, G62A, K67R, L70I
VL: B1 VL with G34A
B13: EM1007-mAb044c-17 (antibody, human IgG1, kappa, L234A L235A, V domains shown)
VH: B3 VH with V5Q, T28A, A40R, G62A, V68A
VL: B1 VL with G34A
B14: HuEM1007-044-14 (antibody, human IgG1, kappa, L234A L235A, V domains shown)
VH: B3 VH with H27G, K38R, A40R, I48M, G62A, K67R, L70I
VL: B6 VL with G34A, G69S
notes: as for B3
B15: HuEM1007-044-4 (antibody, human IgG1, kappa, L234A L235A, V domains shown)
VH: B3 VH
VL: B6 VL
notes: as for B3
B16: EM1007-mAb044c-13 (antibody, human IgG1, kappa, L234A L235A, V domains shown)
VH: B3 VH with H27G, K38R, K43Q, I48M, K67R, L70I
VL: B1 VL
B17: HuEM0005-86-21 (antibody, human IgG1, kappa, L234A L235A, V domains shown)
VH: QVQLVQSGSELKKPGASVKVSCKASGYTFTTYGINWVRQAPGQGLEWMGYIYIGNAYTEYNEKFKGRFVFSLDTSVSTAYLQICSLKAEDTAVYYCARDLMVIAPKTMDYWGQGTTVTVSS
VL: DIQMTQSPSSVSASVGDRVTITCKASQDVGTAVAWYQQKPGKAPKLLIYWASTRHTGVPSRFSGSGSGTDFTLTISSLQPEDFATYYCQQYSSYPYTFGGGTKVEIKR
notes: Humanized anti-PD-L1
B18: EM0005-86c-1 (antibody, V domains shown)
VH: QVQLQQSGAELVRPGSSVKMSCKTSGYTFTTYGINWVKQRPGQGLEWIGYIYIGNAYTEYNEKFKGKATLTSDPSSRTAYMQLSSLTSEDSAIYFCARDLMVIAPKTMDYWGQGTSVTVSS
VL: DIQMNQSHKFMSTSVGDRVSITCKASQDVGTAVAWYQQKPGQSPKLLIYWASTRHTGVPDRFTGGGSGTDFTLTISNVQSEDLADYFCQQYSSYPYTFGGGTKLEMK
notes: Chimeric variant of EM0005-86c

T2 sequence (Q9NZQ7 19-239 limits assumed): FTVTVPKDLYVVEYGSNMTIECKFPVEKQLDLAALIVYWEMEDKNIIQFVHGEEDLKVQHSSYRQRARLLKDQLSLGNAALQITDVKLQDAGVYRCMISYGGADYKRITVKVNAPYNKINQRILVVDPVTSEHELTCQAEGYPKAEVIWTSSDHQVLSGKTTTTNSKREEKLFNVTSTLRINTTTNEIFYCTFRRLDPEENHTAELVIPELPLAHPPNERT

The target of the first experiment is T1, recombinant human OX40/His fusion …. In words: BLI (Octet RED96), antibody on AHC sensor, OX40/His as analyte, test group 2. As for the experimental part: (§1) All 17 antibodies in Table 4 were expressed by transient transfection of HEK293 cell, purified by Protein A chromatography, and assayed for and ranked by dissociation rate constant (koff). Briefly, antibodies binding affinities and kinetics were characterized by Octet® RED96 biolayer interferometry (Pall FortéBio LLC). Antibodies were captured by Anti-hIgG Fc Capture (AHC) Biosensors (Pall) at a concentration of 100 nM for 120 seconds. After that, sensors were dipped into running buffer (1× pH 7.2 PBS, 0.05% Tween 20, 0.1% BSA) for 60 seconds to check the baseline, then dipped into recombinant human OX40/His fusion protein (Novoprotein, CB17) at assigned concentration for 200 seconds to measure binding, followed by dipped into running buffer for 600 seconds for dissociation. The assay was conducted in four test groups (as listed in Table 5) all containing the EM1007-044c chimeric antibody as the basis for normalization. The association and dissociation curves were fitted to a 1:1 Langmuir binding model using ForteBio Data Analysis software (Pall) to obtain the off-rate constants as shown in Table 5 below. The off-rate of each antibody was compared to that of the EM1007-mAb044c chimeric antibody in the same test group obtained in parallel to produce the corresponding off-rate ratio, serving as a normalized index. […]
Usually koff stands for the first-order rate constant of dissociation. Turning to B1, the “Normalized Index (off-rate ratio to EM1007-mAb044c)” value stood at 97% and the dissociation rate constant (koff) is 0.000309 s⁻¹.

Take B2: the “Normalized Index (off-rate ratio to EM1007-mAb044c)” value came out at 94% and the off-rate (koff) is 0.000299 s⁻¹.

As for B3, the “Normalized Index (off-rate ratio to EM1007-mAb044c)” value is 317% and the koff was determined as 0.00101 s⁻¹.

B4: the “Normalized Index (off-rate ratio to EM1007-mAb044c)” value amounted to 100% and the koff turned out to be 0.000317 s⁻¹.

Regarding B5, the “Normalized Index (off-rate ratio to EM1007-mAb044c)” value was determined as 343% and the koff amounted to 0.00109 s⁻¹.

As for B6, the “Normalized Index (off-rate ratio to EM1007-mAb044c)” value stood at 255% and the koff is 0.00081 s⁻¹.

Another experiment shares this target. In words: BLI (Octet RED96), antibody on AHC sensor, OX40/His as analyte, test group 1. How it is done: as §1
In general terms: Biolayer interferometry detects binding as a change in optical thickness at a sensor tip.
With B7, the “Normalized Index (off-rate ratio to EM1007-mAb044c)” value came out at 331% and the off-rate (koff) amounted to 0.00111 s⁻¹.

Regarding B8, the “Normalized Index (off-rate ratio to EM1007-mAb044c)” value was 281% and the koff turned out to be 0.000944 s⁻¹.

Take B9: the “Normalized Index (off-rate ratio to EM1007-mAb044c)” value worked out at 243% and the koff came to 0.000818 s⁻¹.

As for B10, the “Normalized Index (off-rate ratio to EM1007-mAb044c)” value came out at 306% and the koff turned out to be 0.00103 s⁻¹.

As to B11, the “Normalized Index (off-rate ratio to EM1007-mAb044c)” value amounted to 255% and the koff turned out to be 0.000859 s⁻¹.

The target is the same in the next experiment. In words: BLI (Octet RED96), antibody on AHC sensor, OX40/His as analyte, test group 4. How it is done: as §1
Regarding B12, the “Normalized Index (off-rate ratio to EM1007-mAb044c)” value turned out to be 340% and the koff stood at 0.000949 s⁻¹.

As to B13, the “Normalized Index (off-rate ratio to EM1007-mAb044c)” value came to 92% and the koff worked out at 0.000256 s⁻¹.

For B14, the “Normalized Index (off-rate ratio to EM1007-mAb044c)” value stood at 341% and the koff was 0.000952 s⁻¹.

A further experiment has the same target. Kind of experiment: BLI (Octet RED96), antibody on AHC sensor, OX40/His as analyte, test group 3. How it is done: as §1
Regarding B15, the “Normalized Index (off-rate ratio to EM1007-mAb044c)” value was determined as 486% and the koff turned out to be 0.00148 s⁻¹.

Take B16: the “Normalized Index (off-rate ratio to EM1007-mAb044c)” value worked out at 427% and the koff stood at 0.0013 s⁻¹.

The next experiment concerns the target T2, recombinant human PD-L1/His fusion protein (Novoprotein, Cat. No. C315) (human, UniProt Q9NZQ7 19-239).
T2 construct: also called recombinant human PD-L1-his protein
In words: BLI (Octet RED96), antibody on AHC sensor, PD-L1/His as analyte, test group 1. An excerpt: Based on titer and purity, 10 of the 50 humanized antibodies were selected and further assayed in two groups for dissociation rate constant (koff) as shown in Table 7. Chimeric antibody EM0005-86c having VH/VL sequences identical to EM0005-mAb86 (as provided in Table 6) was used as a positive control in each group and served as a basis for normalization. Briefly, antibodies were characterized for affinities and binding kinetics by Octet® RED96 biolayer interferometry (Pall FortéBio LLC). Anti-hIgG Fc Capture (AHC) Biosensors (Pall) with antibody captured at a concentration of 100 nM for 120 seconds were dipped into running buffer (1× pH 7.2 PBS, 0.05% Tween 20, 0.1% BSA) for 60 seconds to check the baseline, then dipped into a single concentration of recombinant human PD-L1/His fusion protein (Novoprotein, Cat. No. C315) to measure binding for 200 seconds, followed by dipped into running buffer to measure dissociation for 600 seconds. The association and dissociation curves were fitted to a 1:1 Langmuir binding model using FortéBio Data Analysis software (Pall). The off-rate ratios shown in Table 7 were calculated by off-rate of a humanized antibody to that of EM0005-86c in the same test group. The off-rate ratio serves as a normalized index, so that the humanized antibodies can be compared to one another across test groups. The lower off-rate ratio indicates higher affinity of an antibody for human PD-L1. HuEM0005-86-21 was selected for further investigation based on the purity and off-rate data.
In the case of B17, the “Off-Rate Ratio to EM0005-86c” value is 88% and the off-rate (koff) amounted to 0.000239 s⁻¹.

With B18, the “Off-Rate Ratio to EM0005-86c” value stood at 69% and the koff is 0.000188 s⁻¹.
